Assay results reported in US20220080036A1 (VANDERBILT UNIVERSITY, published 2022).
Where a chain is given by its changes, count along the chain named.

T1: IsdA (iron-regulated surface determinant protein A), recombinant (Staphylococcus aureus, UniProt P0C1S5 58-316)
T1 construct: also called recombinant IsdA; Isd antigen
T1 chain: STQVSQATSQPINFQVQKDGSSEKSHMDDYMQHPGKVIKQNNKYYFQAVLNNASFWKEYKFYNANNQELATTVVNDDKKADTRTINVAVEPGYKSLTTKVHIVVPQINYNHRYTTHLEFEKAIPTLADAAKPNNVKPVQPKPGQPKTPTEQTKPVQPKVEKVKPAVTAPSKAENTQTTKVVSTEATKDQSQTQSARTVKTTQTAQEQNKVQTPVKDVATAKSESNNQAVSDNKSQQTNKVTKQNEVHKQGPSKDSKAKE

B1: STAU-229 (antibody, V domains shown)
VH: EVQLVQSGAEVKKPGATMKISCKVSGYPFTDYYMHWVQQAPGKGLEWMGLIDPEDGETNYAEKFQGRVTITADTSTDTVYMELSSLRSEDTAVYFCAKPHCSSRTCQRVSGYYFGMDVWGQGTLVTVSS
VL: QSALTQPPSASGSPGQSVTISCTGSSNDVGDYNFVSWYQQHPGKPPKLMIYEVTKRPSGVPDRFFGSKSGNTASLTVSGLQADDEADYYCSSYAGGNSVVFGGGTKLTVL
B2: STAU-399 (antibody, V domains shown)
VH: QVQLVQSGAEVKKPGSSLKVSCKVSGGNLRSYGISWVRQAPGQGLEWMGVIIPIFGTPTYAQKFQGRVTLAADDSNNIVFMELSSLRSEDTAVYYCARDWPSITVAVDATNYGMDVWGQGTLVTVSS
VL: QSALTQPRSVSGSPGQSVTISCTGTSNDVGYYDHVSWYQQHPGKAPKFIIYDVSKRPSGVPDRFSGSKSDNTASLTISGLQAEDEADYYCCSFAGSYTYVFGTGTKVTVL
B3: STAU-201 (antibody, V domains shown)
VH: QVQLVQSGPEVKKPGASVKVSCKASGYTFTNYGLTWVRQAPGKGLEWIGWISPYTGRAKFALKFQGRFTLTTDTSTTTAYMEVRSLKSDDSAVYYCAREGIKDASAFDFWGQGTLVTVSS
VL: QSALTQPASVSGSPGQSITISCTGTGSDIGGYNHVSWYHHYPGKAPKLLIFGVTHRPSGVSDRFSGSKSGVTAFLTISGLQAEDEADYYCSSYTDNTSWVFGGGTKVTVL
B4: STAU-280 (antibody, V domains shown)
VH: EVQLVESGGGLVQTGGSLRLSCAASGFTFSRYNMNWVRQAPGKGLEWVSFISATSSSIYYADSVKGRFTISRDNAKNSLDLQMNSLRDEDTAVYFCVREDAAIFGVGSWFDPWGQGTLVTVSS
VL: EIVMTQSPATLSVSPGERATLSCRASQSVSSNLAWYQQKPGQAPRLLIYGASTRATGIPARFSGSGSGTEFTLTISSLQSEDFAVYFCQEYNDWPLYTFGQGTKLEIK
B5: STAU-299 (antibody, V domains shown)
VH: QVTLRESGPALVKPTETVTLTCTFSGFSLSTSGMCVTWLRQPPGKALEWLALIDWEDDKYYSTSLKTRFTISKDTSKNQVVLTMTNMDPVDTATYYCARTPTYRGAFDMWGQGTLVTVSS
VL: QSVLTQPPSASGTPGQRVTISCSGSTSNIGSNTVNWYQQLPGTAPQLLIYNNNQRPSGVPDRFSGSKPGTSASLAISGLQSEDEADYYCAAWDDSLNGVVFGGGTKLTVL
B6: STAU-221 (antibody, V domains shown)
VH: QVTLRESGPALVKPTQTLTLTCTFSGFSLTSSGMCVSWIRQPPGKALEWLALIDWDDDKYYITSLKTRLIISKDTSKNQVVLTMTNMDPVDTATYYCARTQSGYSGYYVDYWGQGTLVTVSS
VL: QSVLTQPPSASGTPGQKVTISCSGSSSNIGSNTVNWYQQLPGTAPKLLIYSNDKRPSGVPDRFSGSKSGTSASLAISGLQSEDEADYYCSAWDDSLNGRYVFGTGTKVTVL
B7: STAU-402 (antibody, V domains shown)
VH: QLQLQESGPGLVKPSETLSLTCTVSGGSISSSSYYWGWIRQPPGKGLEWIGSIYYSGSTYYNPSLKSRVTISVDTSKNQFSLKLSSVTAADTAVYYCARPNSSGWSYYFDYWGQGTLVTVSS
VL: QSVLTQPPSVSGAPGQRVTISCTGTSSNIGADYDVHWYQQLPGTAPKLLIYGNINRPSGVPDRFSGSRSGTSASLAITGLQADDEADYYCQSYDSSLSGSVVFGGGTKLTVL
B8: STAU-401 (antibody, V domains shown)
VH: QVQLVQSGPEARKPGTSVKVSCKTSGYTFSSYGIAWVRQAPGQGLEWMGWISGYSDYTIYAQRLQGRVSMTTDPYTSTAYMELRSLRPDDTAVYYCATLSFGELVENKLDFWGQGTLVTVSS
VL: B7 VL with D34A, N53T
B9: STAU-407 (antibody, V domains shown)
VH: QLQLQESGPGLVKPSETLSLTCSVSGGSISRTYYYWDWIRQPPGKGLEWIGSVYYSGSTYYNPSLKSRVTMSVDTSKNLFSLKLSSVTAADTAVYYCASHESWQQLISWGQGTLVTVSS
VL: QAVLTQPSSLSASPGASASLTCTLRSGINVGIYRIYWYQQKPGSPPQYLLRYKSDSDKHQGSGVPSRFSGSKDASANAGILLISGLQSEDEADYYCMIWHSSAVAFGGGTKLTVL
B10: STAU-307 (antibody, V domains shown)
VH: QVQLVQSGAEVKKTGSSVKVSCTASGATFNTNDLMWVRQAPGQGLEWMGGIVPVFGRPKYAKKFHGRLIISADEFTTTFYMELTSLTFDDTAIYYCARSGSTESPIQHIDFWGQGTLVTVSS
VL: SYVLTQPPSVSVAPGQTATITCGGDNIATFSVHWYRQKPGQAPVLVVYDDLDRASGIPARFSGSNSGNTATLTISRVEPGDEADYFCQVWEISSDEYVFGPGTSVTVL
B11: STAU-239 (antibody, V domains shown)
VH: QVQLVQSGAEVKKPGSSVKVSCRASGGPFNTYVITWVRQAPGQGLEWMGGIVPVFNTSHSAQKFQGRVKISADTSTNTVYMELTSLTFEDTAVYFCARDGAAAPLNWYDPWGQGTLVTVSS
VL: SYVLTQPPSVSLAPGQTATLTCGGNNIGSKSVHWYQKKPGQAPVLVVYDVRDRPSGIPERFSGSSSENTATLTLSRVEAEDEADYYCQVWESTTSHVIFGGGTKLTVL
B12: STAU-218 (antibody, V domains shown)
VH: QVTLKESGPVVVKPTETLTLTCTVSDVSLRNVQMGVSWIRQPPGKALEWLAHIFSHDEKAYVTSLENRLTISRDTSNSQVVLTMTNMDPVDTGTYYCARIRSTSGEEEDPFAFWGQGTLVTVSS
VL: DIQMTQSPSSLSASVGDRVTITCRASQSVTTWLAWYQQKPGKAPKLLIYSASSLESGVPSRFSGSGSGTDFTLTISNLQPDDFATYYCQQYRFYWTFGQGTKVESK
B13: STAU-64 (antibody, V domains shown)
VH: EVQLVESGGGLVKPGGSLRLSCAASGFSFSYYSMNWVRQAPGKGLEWISSISSSGEYIYYADSVKGRFTISRDNAENSLYLQMNSLRAEDTAVYYCAKVVSQQSLDYWGQGTLVTVSS
VL: DIVMTQSPSSLSVSVGDRVTITCRASQSISTYLNWYQQKPGKAPKLLISGGSNLQSGVPSRFSGSGSGTDFTLTIISLQPEDFATYYCQQSYSTRYSFGQGTKLEIK
B14: STAU-389 (antibody, V domains shown)
VH: B2 VH with K13Q, P14S, T57A, L70F, A71V, S75G, I78V, T110I, Y112F, G113A
VL: B2 VL with S26N, Y31S, K55T, K106T
B15: STAU-328 (antibody, V domains shown)
VH: QVQLQQWGAGLLKPSETLSLTCAVYGGSFSGYYWSWIRQPPGKGLEWIGEINHSGSTNYNPSLKSRVTISVDTSKNQFSLKLSSVTAADTAVYYCARDVGDRYYFDYWGQGTLVTVSS
VL: QSALTQPASVSGSPGQSITISCTGTSSDVGSYNLVSWYQQHPGKAPKLMIYEGSKRPSGVSNRFSGSKSGNTASLTISGLQAEDEADYYCCSYAGSSTFVVFGGGTKLTVL
B16: STAU-281 (antibody, V domains shown)
VH: QVQLVQSGAEVKRPGSSVRVSCKDSGDSFRRYVINWVRQAPGQGLEWMGGIIPIFDKAKSVQKFQDRLTITADESTSTSYMELSSLTSEDTAVYYCARKEDGRRDDVFDIWGQGTLVTVSS
VL: EIVMTQSPATLSVSLGERATLSCRASHSVGSSLAWYQQKPGLAPRLLIYGVSTRATGIPARFSGSGSATEFTLTISSLQSEDLAAYHCQQYDNWPFTFGQGTKLEIK
B17: STAU-139 (antibody, V domains shown)
VH: EVQLVQSGAEVKKPGESLKISCKGSGYSFTSYWIGWVRQMPGKGLEWMGIIYPGDSDTRYSPSFQGQVTISADKSISTAYLQWSSLKASDTAMYYCARPPGLRGDAFDIWGQGTLVTVSS
VL: QSALTQPPSASGSPGQSVTISCTGTSSDVGGYNYVSWYQQHPGKAPKLMIYEVSKRPSGVPDRFSGSKSGNTASLTVSGLQAEDEADYYCSSYAGSNNLVFGGGTKLTVL

Target: T1, IsdA (iron-regulated surface …)
Assay: ELISA on coated recombinant antigen, half-maximal binding

In order of falling EC50:
1. B4  52100 ng/mL
2. B8  25100 ng/mL
3. B2  8700 ng/mL
4. B7  8200 ng/mL
5. B9  1600 ng/mL
6. B1  700 ng/mL
7. B3  260 ng/mL
8. B5  220 ng/mL
9. B12  80 ng/mL
10. B11  70 ng/mL
11. B6  30 ng/mL
12. B10  10 ng/mL

Each binder was assayed against T2, IsdB (iron-regulated surface determinant protein B), recombinant (Staphylococcus aureus, UniProt A6QG30 41-609) in the same assay as above.
T2 construct: also called recombinant IsdB
T2 sequence (A6QG30 41-609 limits assumed): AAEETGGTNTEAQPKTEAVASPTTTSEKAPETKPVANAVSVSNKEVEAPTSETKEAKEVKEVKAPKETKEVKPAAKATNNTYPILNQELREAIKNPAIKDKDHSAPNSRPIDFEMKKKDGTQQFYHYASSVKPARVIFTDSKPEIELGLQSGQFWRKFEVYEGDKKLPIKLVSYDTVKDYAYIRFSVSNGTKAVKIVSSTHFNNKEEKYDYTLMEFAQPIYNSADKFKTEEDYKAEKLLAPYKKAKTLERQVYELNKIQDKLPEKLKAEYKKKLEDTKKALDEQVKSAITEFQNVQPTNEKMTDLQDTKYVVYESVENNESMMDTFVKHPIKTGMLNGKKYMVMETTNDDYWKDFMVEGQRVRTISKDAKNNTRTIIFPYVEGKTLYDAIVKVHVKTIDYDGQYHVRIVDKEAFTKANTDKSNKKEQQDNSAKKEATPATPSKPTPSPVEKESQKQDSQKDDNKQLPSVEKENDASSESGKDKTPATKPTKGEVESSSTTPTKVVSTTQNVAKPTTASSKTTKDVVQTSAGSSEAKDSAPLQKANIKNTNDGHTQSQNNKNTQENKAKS

In order of falling EC50:
1. B5  12700 ng/mL
2. B3  9500 ng/mL
3. B4  7600 ng/mL
4. B12  4100 ng/mL
5. B8  3700 ng/mL
6. B7  3400 ng/mL
7. B6  1900 ng/mL
8. B2  530 ng/mL
9. B13  140 ng/mL
10. B14  130 ng/mL
11. B15  80 ng/mL
12. B1  10 ng/mL
13. B16  2 ng/mL
14. B11  1 ng/mL
15. B10  0.28 ng/mL

What follows are binders tested against T3, IsdH (iron-regulated surface determinant protein H), recombinant (Staphylococcus aureus) in the same assay as above.
T3 construct: also called recombinant IsdH
T3 sequence (Q2FG07 41-864): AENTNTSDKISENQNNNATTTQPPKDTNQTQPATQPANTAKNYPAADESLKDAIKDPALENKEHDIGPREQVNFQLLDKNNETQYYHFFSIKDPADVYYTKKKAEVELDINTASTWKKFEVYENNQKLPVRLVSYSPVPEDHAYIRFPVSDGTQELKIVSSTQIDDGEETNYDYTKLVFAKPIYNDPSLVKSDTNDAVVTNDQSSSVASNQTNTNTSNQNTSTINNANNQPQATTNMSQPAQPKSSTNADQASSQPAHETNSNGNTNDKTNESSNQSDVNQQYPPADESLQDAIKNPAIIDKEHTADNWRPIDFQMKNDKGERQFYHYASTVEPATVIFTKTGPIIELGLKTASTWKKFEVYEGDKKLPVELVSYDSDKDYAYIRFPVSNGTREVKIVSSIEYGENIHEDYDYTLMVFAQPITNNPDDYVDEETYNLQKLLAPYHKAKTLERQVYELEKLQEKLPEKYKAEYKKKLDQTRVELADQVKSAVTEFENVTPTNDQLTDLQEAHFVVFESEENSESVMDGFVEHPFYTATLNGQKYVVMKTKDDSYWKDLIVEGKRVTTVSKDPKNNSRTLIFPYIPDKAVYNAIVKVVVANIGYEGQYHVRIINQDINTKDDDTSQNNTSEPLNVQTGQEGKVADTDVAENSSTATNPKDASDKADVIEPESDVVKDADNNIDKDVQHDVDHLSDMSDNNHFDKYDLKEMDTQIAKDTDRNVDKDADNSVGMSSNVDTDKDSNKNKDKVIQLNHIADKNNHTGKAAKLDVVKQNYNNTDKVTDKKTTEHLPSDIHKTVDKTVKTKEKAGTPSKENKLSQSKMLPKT

In order of falling EC50:
1. B9  3100 ng/mL
2. B17  2700 ng/mL
3. B2  950 ng/mL
4. B14  340 ng/mL
5. B15  60 ng/mL
6. B16  2.7 ng/mL
7. B10  0.01 ng/mL
